Source: patent US20210253738A1 (UNITED STATES OF AMERICA AS REPRESENTED BY THE SECRETARY …, published 2021)

How the values were obtained:
[1] = target: T1, bovine serum albumin (BSA) (bovine, UniProt P02769 25-607); assay: indirect EIA, compounds coated on microtiter plates, clonal supernatant, goat anti-mouse IgG HRP detection
T1 construct: Unconjugated carrier protein used as a screening control; also called carrier protein
Experimental: (§1) An assay was developed to screen the Mabs for reactivity to the FTC conjugates. Microtiter plates were coated with the following reagents: FTC-peptide-dextran, FTC-peptide, FTC-peptide-LPH, FTC-peptide-BSA, FTC heptanoic acid, peptide only, peptide-LPH, peptide-BSA, BSA, LPH, and normal mouse serum (NMS). All compounds were diluted into sodium bicarbonate buffer, pH 9.6, to a concentration of 5 ug/ml; NMS was diluted 1:15. One hundred microliters of each solution was added to a column of the microtiter plate such that each row of the plate allowed the testing of a single clonal supernatant against all of the compounds in a single run. Plates were incubated at 4° C. overnight and then washed 3× with phosphate-buffered saline (PBS) containing 0.05% Tween 20 (PBS-T). Plates were blocked with PBS containing 0.5% nonfat dry milk for 1 hour at 37° C., washed 3×, and dried at 37° C. for 30 minutes. Prepared plates were covered with an adhesive seal, placed into a moisture resistant bag, and stored in a dessicant chamber at 20-24° C. until use.

[2] = target: T2, limulus polyphemus hemocyanin II (LPH) (Limulus polyphemus, UniProt P04253 1-628, limits assumed); assay: as above
T2 construct: Unconjugated carrier protein used as a screening control; also called carrier protein
T2 sequence (looked up): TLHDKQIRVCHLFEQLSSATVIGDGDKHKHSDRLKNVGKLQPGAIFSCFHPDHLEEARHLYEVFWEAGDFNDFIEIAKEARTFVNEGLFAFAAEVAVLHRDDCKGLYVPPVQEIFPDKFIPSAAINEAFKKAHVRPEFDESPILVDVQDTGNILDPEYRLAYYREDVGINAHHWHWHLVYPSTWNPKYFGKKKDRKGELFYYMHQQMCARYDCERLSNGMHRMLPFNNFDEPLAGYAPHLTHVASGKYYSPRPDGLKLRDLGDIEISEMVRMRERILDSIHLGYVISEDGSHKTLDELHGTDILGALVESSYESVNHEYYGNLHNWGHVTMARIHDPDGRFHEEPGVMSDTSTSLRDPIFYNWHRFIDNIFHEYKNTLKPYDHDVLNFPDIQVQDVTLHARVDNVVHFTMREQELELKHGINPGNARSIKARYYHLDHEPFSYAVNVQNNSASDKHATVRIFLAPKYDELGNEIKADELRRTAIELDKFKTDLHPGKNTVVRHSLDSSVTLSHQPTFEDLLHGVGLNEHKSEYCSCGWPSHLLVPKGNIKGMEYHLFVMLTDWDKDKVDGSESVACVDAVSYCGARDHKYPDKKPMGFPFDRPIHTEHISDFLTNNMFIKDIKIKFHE
Experimental: as §1

T1 sequence (P02769 25-607 limits assumed): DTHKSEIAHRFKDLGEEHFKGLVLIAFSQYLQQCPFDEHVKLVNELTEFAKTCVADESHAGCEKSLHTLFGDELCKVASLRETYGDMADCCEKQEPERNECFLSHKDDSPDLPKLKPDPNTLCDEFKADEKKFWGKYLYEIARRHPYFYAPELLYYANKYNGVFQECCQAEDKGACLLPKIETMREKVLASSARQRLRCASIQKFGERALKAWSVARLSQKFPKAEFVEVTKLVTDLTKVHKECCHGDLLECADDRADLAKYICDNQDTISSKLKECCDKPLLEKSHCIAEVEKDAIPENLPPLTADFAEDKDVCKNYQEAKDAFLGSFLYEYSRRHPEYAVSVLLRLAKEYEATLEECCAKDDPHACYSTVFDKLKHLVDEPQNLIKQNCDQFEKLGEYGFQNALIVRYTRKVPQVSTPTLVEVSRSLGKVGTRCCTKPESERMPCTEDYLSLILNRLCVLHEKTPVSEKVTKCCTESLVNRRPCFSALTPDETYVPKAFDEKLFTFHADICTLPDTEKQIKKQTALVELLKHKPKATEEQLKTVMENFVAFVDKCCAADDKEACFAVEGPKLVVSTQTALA

B1: 5D2 monoclonal antibody (antibody, mouse IgG2b, kappa, V domains shown)
VH: QVQLQQPGAELVKPGASVKVSCKASGYTFTSYWMHWVKQRPGQGLEWIGRIHLSDSDTNYNQNFKDKATLTVDKSSRTAHMHLSSLTSADSAVYYCAMGGTFQSNYDTYWGQGTLVTVSA
VL: DIQMTQSPASLSASVGETVTITCRASGNIHNYLAWYQQKQGKSPQLLVYNAKTLTDGVPSRFSGSGSGTQYSLKINSLQPEDFGNYYCQHFLYTPYTFGGGTKLEMRR
notes: Mouse IgG2b, kappa, raised against the small molecule emtricitabine (FTC); In the lateral flow assay the antibody was conjugated to gold; also called Mab 5D2; FTC (5D2) monoclonal antibody
[1]
  binding result: no binding (tested: 5 ug/ml (coating concentration))
[2]
  binding result: no binding (tested: 5 ug/ml (coating concentration))
